B1: H2-Kb / F5 (parent)
chain 1: GDSVTQTEGLVTLTEGLPVMLNCTYQSTYSPFLFWYVQHLNEAPKLLLKSFTDNKRPEHQGFHATLHKSSSSFHLQKSSAQLSDSALYYCALSPSNMGYKLTFGTGTSLLVDP
chain 2: EAAVTQSPRNKVAVTGGKVTLSCNQTNNHNNMYWYRQDTGHGLRLIHYSYGAGSTEKGDIPDGYKASRPSQENFSLILELATPSQTSVYFCASGDASEQYFGPGTRLTVL
chain 3: not shown
chain 4: IQKTPQIQVYSRHPPENGKPNILNCYVTQFHPPHIEIQMLKNGKKIPKVEMSDMSFSKDWSFYILAHTEFTPTETDTYACRVKHDSMAEPKTVYWDRDM
chain 5: SIINFEKL
B2: H2-Kb / B5 (parent)
chain 1: TQTVSQSDAHVTVFEGDSVELRCNYSYGGSIYLSWYIQHHGHGLQFLLKYYSGNPVVQGVNGFEAEFSKSDSSFHLRKASVHWSDSAVYFCAVSLYQGGRALIFGTGTTVSVSP
chain 2: EAGVTQSPRYAVLQEGQAVSFWCDPISGHDTLYWYQQPRDQGPQLLVYFRDEAVIDNSQLPSDRFSAVRPKGTNSTLKIQSAKQGDTATYLCASSFAGGARAEQFFGPGTRLTVL
chain 3: not shown
chain 4: B1 chain 4
chain 5: SIINFEKL

Variants of: B1
Experiment: % of reporter cells activated (NFAT-GFP), raw
Settings: with F5; scale: % of reporter cells activated
Note: test concentration or dose not given here.

Ratio to parent: each site, then its substitutions
chain 5 E6: Q 0.288, I 0.21, V 0.232, C 0.303, M 0.221, N 0.296, T 0.36
chain 5 F5: E 0.315, P 4.99, N 0.655, R 0.318, Q 1.76, S 1.09, I 0.607, L 0.79
chain 5 I2: R 0.273, Q 0.472, C 0.779, M 1.58, N 0.903, S 0.483, P 0.419, Y 0.393, F 0.577
chain 5 I3: G 0.292, H 0.311, S 0.348, E 0.517, A 0.386, C 0.419
chain 5 N4: D 0.21, C 0.232, L 0.401, G 0.24
chain 5 K7: E 0.184, G 0.318, Q 1.38, C 0.588, R 2.89, S 0.775, M 5.55, W 0.498, L 3.69, T 1.72, D 0.341
chain 5 L8: G 0.352, A 0.195, I 0.858, Y 0.742
chain 5 S1: A 0.521, R 0.225, K 0.326, D 0.288, N 0.161, T 0.573, Q 0.554, G 0.629, F 0.262

Variants of: B2
Experiment: % of reporter cells activated (NFAT-GFP), raw
Settings: with B5; scale: % of reporter cells activated

Ratio to parent of substitutions, site by site:
chain 5 K7: N 1.21, G 0.917, P 0.889, Q 1.01, T 1.17, W 1.19, L 1.28, I 1.4, F 0.806, R 0.833, A 1.19, Y 1.38
chain 5 N4: C 0.625, V 0.389, L 1.08, H 0.556, E 0.778, R 0.556, D 1.08, G 1.33, S 0.597, P 0.917, Y 1, F 8.53, K 1.07, A 0.931, M 0.75
chain 5 E6: S 1.03, H 1.03, A 0.708, L 1.4, Y 1.44, C 1.38, G 1.01, D 1, I 1.36, N 1.12, M 0.903, K 1.17, Q 1.24, T 1.17, V 0.75, R 0.806
chain 5 F5: K 1.06, Q 1.14, A 0.611, W 0.694, Y 1.29, I 0.597, N 1.36, T 0.653, E 0.472, M 1.01, L 0.958, P 1.04, S 0.806, H 0.556
chain 5 S1: L 0.764, E 0.889, M 1.22, W 1.65, P 0.917, F 1.22, T 0.986, N 1.24, D 1.54, A 1.43, Q 1.08, G 0.889, R 1.14, V 1.39, I 1.14
chain 5 I2: L 1.17, K 0.889, P 1.12, W 1.51, N 1.36, Y 1.01, D 1.18, H 0.792, E 1.1, M 1.58, F 0.875, Q 1.11
chain 5 L8: E 1.42, V 1.35, D 1.33, W 1.47, Q 1.86, R 1.78, I 1.06, F 1.53, C 1.4, G 0.972, H 1.21, S 1.19, T 1.04, P 1.15, K 0.903
chain 5 I3: T 0.764, Y 0.917, M 0.972, H 1.01, N 0.917, W 7.01, D 1, R 1.03, F 0.958, C 0.792
